From patent US9969784B2, “Compositions and methods for modulation of immune function” (THE CHILDREN'S HOSPITAL OF PHILADELPHIA, priority 2013, dated 2018)

Columns and labels:
Nedd4 = assay: ubiquitin charging assay, Nedd4; assay type: biochemical; conditions: carried out for 30 seconds
Experimental: FIG. 8. Multiple Nedd4-family members likely share this mechanism of auto-inhibition and relief by Ndfip1 and Ndfip2. Nedd4 and Itch were expressed, purified and tested in the ubiquitin charging assay in the presence or absence of Ndfip1 or Ndfip2 as shown. Neither Itch nor Nedd4 were charged with ubiquitin in the assay when Ndfip1 or Ndfip2 were omitted from the assay. These assays were carried out for 30 seconds.
(§1) There are 9 members of the Nedd4-family of E3 ubiquitin ligases. These ligases are unusual in that there is a high degree of sequence similarity. All family members are composed of a HECT domain (the catalytic subunit), 2-4 WW domains, and a single C2 domain. Auto-inhibition of family members has been described by others, and different mechanisms of auto-inhibition have been proposed. […] We have devised a new way to look at auto-inhibition, namely by using a ubiquitin charging assay which is the initial event in activating Nedd4-family E3 ubiquitin ligases. Ubiquitin charging occurs when an E2 ubiquitin conjugating enzyme transfers ubiquitin to the catalytic cysteine of the Nedd4-family E3 ligase. This event is absolutely required for catalytic activity of the E3 ligase. […] We have determined that Ndfip1 and Ndfip2 are not required for Itch to bind the E2, as association between E2 and Itch occur in the absence of Ndfip1 and Ndfip2. […]

Itch = target: T1, Itch (Homo sapiens, UniProt Q96J02); assay: ubiquitin charging assay (cell free), Itch; assay type: biochemical; conditions: E1, E2, ubiquitin, ATP and Mg++, then EDTA, Itch added with the substance
T1 construct: made in house
Experimental: FIGS. 1A-1D. Ndfip1 and Ndfip2 promote ubiquitin charging of Itch. FIG. 1A: E1, E2, ubiquitin, ATP and Mg++ were incubated together to prepare the E2 for ubiquitin transfer. EDTA was added to prevent further transfer of ubiquitin from E1 to E2. This ensures that only a single ubiquitin will be transferred. Itch was then added to the reaction with or without Ndfip1 or Ndfip2. […] FIG. 1C: Schematic diagram of auto-inhibition by Itch and activation by Ndfip1. FIG. 1D: Ndfip peptide mimics therapeutically activate
as §1, with “ligase.” for “ligase. This event is absolutely required for catalytic activity of the E3 ligase.”

T1 sequence (Q96J02 whole entry, species assumed): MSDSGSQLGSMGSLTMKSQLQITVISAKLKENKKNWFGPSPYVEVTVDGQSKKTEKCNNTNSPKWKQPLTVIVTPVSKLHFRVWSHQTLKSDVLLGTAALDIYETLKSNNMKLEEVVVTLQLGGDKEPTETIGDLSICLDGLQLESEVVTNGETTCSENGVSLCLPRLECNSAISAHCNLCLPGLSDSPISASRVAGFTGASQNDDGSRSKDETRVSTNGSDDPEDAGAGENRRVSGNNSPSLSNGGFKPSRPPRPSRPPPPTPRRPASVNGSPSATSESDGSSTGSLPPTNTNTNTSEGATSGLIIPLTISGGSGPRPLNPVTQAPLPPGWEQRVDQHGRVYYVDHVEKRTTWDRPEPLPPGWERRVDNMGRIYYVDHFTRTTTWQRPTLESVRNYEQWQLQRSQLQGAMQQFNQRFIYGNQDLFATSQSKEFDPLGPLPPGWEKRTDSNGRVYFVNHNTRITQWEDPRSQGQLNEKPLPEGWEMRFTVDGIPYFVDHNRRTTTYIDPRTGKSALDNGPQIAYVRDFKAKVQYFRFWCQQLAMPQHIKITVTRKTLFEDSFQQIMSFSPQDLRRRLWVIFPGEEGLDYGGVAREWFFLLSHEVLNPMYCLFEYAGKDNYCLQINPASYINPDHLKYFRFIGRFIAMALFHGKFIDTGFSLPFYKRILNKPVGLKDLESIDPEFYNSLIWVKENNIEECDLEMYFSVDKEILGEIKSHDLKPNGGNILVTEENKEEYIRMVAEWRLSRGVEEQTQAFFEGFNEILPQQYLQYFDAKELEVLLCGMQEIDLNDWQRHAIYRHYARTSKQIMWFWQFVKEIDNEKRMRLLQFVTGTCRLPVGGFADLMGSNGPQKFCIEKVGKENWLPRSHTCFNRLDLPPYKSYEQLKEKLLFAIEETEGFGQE
Nedd4, sequence (P46934 whole entry, species assumed): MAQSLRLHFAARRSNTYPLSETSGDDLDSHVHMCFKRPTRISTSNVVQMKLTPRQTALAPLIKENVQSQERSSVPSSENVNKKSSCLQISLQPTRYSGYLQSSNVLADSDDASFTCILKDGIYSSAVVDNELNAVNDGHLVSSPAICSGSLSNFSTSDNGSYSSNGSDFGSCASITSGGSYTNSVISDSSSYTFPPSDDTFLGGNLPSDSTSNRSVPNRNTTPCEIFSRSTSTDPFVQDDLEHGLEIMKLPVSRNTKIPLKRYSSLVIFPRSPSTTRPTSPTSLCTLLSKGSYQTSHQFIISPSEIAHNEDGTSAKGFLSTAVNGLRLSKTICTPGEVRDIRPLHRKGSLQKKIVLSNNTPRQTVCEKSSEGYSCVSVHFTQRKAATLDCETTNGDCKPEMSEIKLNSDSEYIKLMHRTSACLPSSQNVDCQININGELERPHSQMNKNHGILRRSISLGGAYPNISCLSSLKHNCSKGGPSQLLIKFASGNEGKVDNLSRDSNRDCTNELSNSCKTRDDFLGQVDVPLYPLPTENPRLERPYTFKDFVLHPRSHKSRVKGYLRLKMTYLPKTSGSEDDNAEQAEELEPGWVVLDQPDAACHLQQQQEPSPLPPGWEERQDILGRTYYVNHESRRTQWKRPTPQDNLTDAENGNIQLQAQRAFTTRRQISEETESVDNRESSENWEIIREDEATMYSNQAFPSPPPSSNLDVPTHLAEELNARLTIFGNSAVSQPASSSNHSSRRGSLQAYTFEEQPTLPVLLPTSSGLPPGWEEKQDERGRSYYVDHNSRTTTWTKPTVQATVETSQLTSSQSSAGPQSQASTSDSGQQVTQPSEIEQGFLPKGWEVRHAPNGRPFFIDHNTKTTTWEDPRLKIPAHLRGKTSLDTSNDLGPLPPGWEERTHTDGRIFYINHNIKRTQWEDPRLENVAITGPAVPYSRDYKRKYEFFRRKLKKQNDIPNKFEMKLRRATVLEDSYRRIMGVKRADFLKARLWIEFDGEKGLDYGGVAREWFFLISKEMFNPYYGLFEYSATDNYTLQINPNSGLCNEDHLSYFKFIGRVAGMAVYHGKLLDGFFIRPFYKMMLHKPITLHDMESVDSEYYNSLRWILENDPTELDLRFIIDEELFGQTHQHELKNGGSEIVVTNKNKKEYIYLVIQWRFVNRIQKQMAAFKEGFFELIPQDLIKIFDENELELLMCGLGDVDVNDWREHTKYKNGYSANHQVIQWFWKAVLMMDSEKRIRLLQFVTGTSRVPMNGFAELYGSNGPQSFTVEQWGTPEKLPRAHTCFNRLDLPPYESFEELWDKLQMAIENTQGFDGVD

ubiquitin charging of Itch (Itch): ubiquitin charging of Itch is observed
B1: Ndfip2: adaptor of the Ndfip family that relieves auto-inhibition of Nedd4-family E3 ligases (protein, UniProt Q9NV92 1-336, looked up)
NEDD4 family-interacting …: MARRRSQRVCASGPSMLNSARGAPELLRGTATNAEVSAAAAGATGSEELPPGDRGCRNGGGRGPAATTSSTGVAVGAEHGEDSLSRKPDPEPGRMDHHQPGTGRYQVLLNEEDNSESSAIEQPPTSNPAPQIVQAASSAPALETDSSPPPYSSITVEVPTTSDTEVYGEFYPVPPPYSVATSLPTYDEAEKAKAAAMAAAAAETSQRIQEEECPPRDDFSDADQLRVGNDGIFMLAFFMAFIFNWLGFCLSFCITNTIAGRYGAICGFGLSLIKWILIVRFSDYFTGYFNGQYWLWWIFLVLGLLLFFRGFVNYLKVRNMSESMAAAHRTRYFFLL
relief of Nedd4 auto-inhibition (Nedd4): auto-inhibition was relieved
